Test results reported in the supplement of paper PMC9112550, “Optimization of the antimicrobial peptide Bac7 by deep mutational scanning” (BMC Biology, 2022).

Tested on: Escherichia coli TOP10
Assay: shrunken log2 fold change of peptide-encoding DNA abundance (4.5 h post-induction vs induction); higher = less antimicrobial activity (less host growth inhibition)
Settings: time post-induction: 4.5 h; library: site-saturation at positions 5, 18, 19, 20
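Also: peptides expressed intracellularly from a pBAD plasmid library in pooled LB shake-flask culture, induced with 0.3% L-arabinose, DNA abundance read by NGS, three biological replicates, DESeq2 with apeglm shrinkage.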

Sequence	shrunken log2 fold change
RRIRMRPPRLPRPRPRPFIGPRP	-0.0122
RRIRMRPPRLPRPRPRPLLNPRP	0.366
RRIRCRPPRLPRPRPRPPDRPRP	0.394
RRIRCRPPRLPRPRPRPCQDPRP	-0.178
RRIRCRPPRLPRPRPRPSILPRP	-0.739
RRIRLRPPRLPRPRPRPTNIPRP	-0.421
RRIRVRPPRLPRPRPRPIVHPRP	-0.00223
RRIRFRPPRLPRPRPRPAWPPRP	0.268
RRIRPRPPRLPRPRPRPFLYPRP	-0.138
RRIRHRPPRLPRPRPRPDGSPRP	-0.0231
RRIRDRPPRLPRPRPRPGPGPRP	0.764
RRIRNRPPRLPRPRPRPMRCPRP	-0.123
RRIRLRPPRLPRPRPRPNEAPRP	0.278
RRIRVRPPRLPRPRPRPRMSPRP	-0.079
RRIRSRPPRLPRPRPRPSRKPRP	-0.0434
RRIRDRPPRLPRPRPRPWYGPRP	-0.87
RRIRQRPPRLPRPRPRPRNKPRP	-0.68
RRIRCRPPRLPRPRPRPTRIPRP	0.258
RRIRRRPPRLPRPRPRPAICPRP	0.134
RRIRHRPPRLPRPRPRPYGDPRP	-0.808
RRIRQRPPRLPRPRPRPIITPRP	-1.01
RRIRHRPPRLPRPRPRPQEVPRP	-0.0461
RRIRHRPPRLPRPRPRPMDKPRP	-0.123
RRIRNRPPRLPRPRPRPSMNPRP	-0.578
RRIRCRPPRLPRPRPRPPLVPRP	0.584

Sequence	shrunken log2 fold change
RRIRNRPPRLPRPRPRPHERPRP	-0.13
RRIRRRPPRLPRPRPRPEHFPRP	0.301
RRIRWRPPRLPRPRPRPNSFPRP	-0.0131
RRIRLRPPRLPRPRPRPGIKPRP	-0.874
RRIRRRPPRLPRPRPRPHMQPRP	0.0237
RRIRQRPPRLPRPRPRPTPTPRP	0.336
RRIRTRPPRLPRPRPRPDLYPRP	0.0261
RRIRIRPPRLPRPRPRPEARPRP	0.312
RRIRDRPPRLPRPRPRPIREPRP	-0.00227
RRIRIRPPRLPRPRPRPYEWPRP	-0.00783
RRIRKRPPRLPRPRPRPGNIPRP	-0.0196
RRIRNRPPRLPRPRPRPNDSPRP	-0.235
RRIRRRPPRLPRPRPRPNIMPRP	-0.359
RRIRQRPPRLPRPRPRPFHEPRP	-0.0703
RRIRHRPPRLPRPRPRPCWTPRP	-0.237
RRIRERPPRLPRPRPRPIKHPRP	-0.967
RRIRARPPRLPRPRPRPIGWPRP	0.488
RRIRKRPPRLPRPRPRPLRYPRP	0.227
RRIRGRPPRLPRPRPRPVTWPRP	0.425
RRIRTRPPRLPRPRPRPHIAPRP	-0.348
RRIRGRPPRLPRPRPRPMWDPRP	0.639
RRIRYRPPRLPRPRPRPRMGPRP	-0.0782
RRIRLRPPRLPRPRPRPRCFPRP	-0.0548
RRIRVRPPRLPRPRPRPMQGPRP	-0.0882
RRIRTRPPRLPRPRPRPVVLPRP	-0.149

Sequence	shrunken log2 fold change
RRIRNRPPRLPRPRPRPSLVPRP	-0.292
RRIRNRPPRLPRPRPRPVPTPRP	0.288
RRIRSRPPRLPRPRPRPWDTPRP	-0.0299
RRIRMRPPRLPRPRPRPWSCPRP	-0.0965
RRIRVRPPRLPRPRPRPHIPPRP	-0.602
RRIRHRPPRLPRPRPRPPRRPRP	0.452
RRIRCRPPRLPRPRPRPDDVPRP	-0.0387
RRIRYRPPRLPRPRPRPGYFPRP	-0.624
RRIRFRPPRLPRPRPRPCEWPRP	0.134
RRIRVRPPRLPRPRPRPCWVPRP	0.0559
RRIRLRPPRLPRPRPRPRHAPRP	0.537
RRIRCRPPRLPRPRPRPMWTPRP	-0.0185
RRIRSRPPRLPRPRPRPMKDPRP	-0.157
RRIRHRPPRLPRPRPRPFKLPRP	-0.196
RRIRYRPPRLPRPRPRPYHMPRP	-0.00245
RRIRPRPPRLPRPRPRPTDVPRP	0.35
RRIRRRPPRLPRPRPRPEFYPRP	0.413
RRIRGRPPRLPRPRPRPPGEPRP	1.14
RRIRVRPPRLPRPRPRPRVQPRP	0.328
RRIRKRPPRLPRPRPRPAWHPRP	0.378
RRIRGRPPRLPRPRPRPHWFPRP	0.156
RRIRSRPPRLPRPRPRPKFAPRP	0.0751
RRIRSRPPRLPRPRPRPQIKPRP	0.0447
RRIRCRPPRLPRPRPRPIWDPRP	0.166
RRIRERPPRLPRPRPRPPRPPRP	0.64

Sequence	shrunken log2 fold change
RRIRRRPPRLPRPRPRPKSDPRP	0.441
RRIRDRPPRLPRPRPRPSGGPRP	0.356
RRIRVRPPRLPRPRPRPPSPPRP	0.417
RRIRLRPPRLPRPRPRPCTRPRP	-0.0398
RRIRPRPPRLPRPRPRPTIKPRP	-0.313
RRIRHRPPRLPRPRPRPFCLPRP	-0.262
RRIRTRPPRLPRPRPRPREPPRP	1.21
RRIRSRPPRLPRPRPRPCHFPRP	-0.186
RRIRERPPRLPRPRPRPLARPRP	0.179
RRIRRRPPRLPRPRPRPETCPRP	-0.00655
RRIRNRPPRLPRPRPRPDNAPRP	-0.0737
RRIRKRPPRLPRPRPRPDLLPRP	0.237
RRIRWRPPRLPRPRPRPFRRPRP	-0.134
RRIRRRPPRLPRPRPRPMWPPRP	0.265
RRIRLRPPRLPRPRPRPFEYPRP	-0.0121
RRIRERPPRLPRPRPRPLINPRP	-0.512
RRIRWRPPRLPRPRPRPEPFPRP	-0.0317
RRIRDRPPRLPRPRPRPEESPRP	0.14
RRIRIRPPRLPRPRPRPNRWPRP	-0.0394
RRIRMRPPRLPRPRPRPKGDPRP	2.08
RRIRFRPPRLPRPRPRPGWFPRP	0.237
RRIRARPPRLPRPRPRPRCQPRP	0.316
RRIRYRPPRLPRPRPRPSLSPRP	-0.623
RRIRPRPPRLPRPRPRPSDAPRP	-0.0621
RRIRDRPPRLPRPRPRPQPKPRP	0.026

Sequence	shrunken log2 fold change
RRIRFRPPRLPRPRPRPGLDPRP	-0.0186
RRIRIRPPRLPRPRPRPNKWPRP	-0.0869
RRIRSRPPRLPRPRPRPICGPRP	-0.056
RRIRLRPPRLPRPRPRPCVMPRP	0.025
RRIRFRPPRLPRPRPRPYCAPRP	-0.517
RRIRNRPPRLPRPRPRPYASPRP	-0.397
RRIRLRPPRLPRPRPRPTARPRP	1.13
RRIRYRPPRLPRPRPRPARTPRP	-0.298
RRIRSRPPRLPRPRPRPQVWPRP	0.675
RRIRSRPPRLPRPRPRPPWWPRP	0.828
RRIRIRPPRLPRPRPRPNDFPRP	-0.276
RRIRCRPPRLPRPRPRPNEFPRP	0.159
RRIRIRPPRLPRPRPRPFRHPRP	-0.219
RRIRWRPPRLPRPRPRPDCNPRP	-0.0173
RRIRWRPPRLPRPRPRPRDVPRP	0.333
RRIRARPPRLPRPRPRPNVFPRP	0.258
RRIRQRPPRLPRPRPRPALQPRP	0.145
RRIRPRPPRLPRPRPRPHWKPRP	-0.131
RRIRLRPPRLPRPRPRPDWNPRP	-0.689
RRIRYRPPRLPRPRPRPYCVPRP	-1.71
RRIRKRPPRLPRPRPRPCCWPRP	1.1
RRIRQRPPRLPRPRPRPARCPRP	0.174
RRIRDRPPRLPRPRPRPKICPRP	0.0258
RRIRRRPPRLPRPRPRPHMLPRP	-0.0594
RRIRTRPPRLPRPRPRPHTSPRP	-0.301
